From publication PMC4338028, “Studies of a Murine Monoclonal Antibody Directed against DARC: Reappraisal of Its Specificity” (PLoS ONE, 2015)
Square brackets hold non-standard residues; d marks the D form. Ends that are not written are not given here. sY = N[C@@H](Cc1ccc(OS(=O)(=O)O)cc1)C(=O)O

How the values were obtained:
[1] = target: murine anti-Fy6 monoclonal antibody 2C3 (clone name NaM185-2C3) (mouse); assay: SPR; competition: 2C3 MAb (culture supernatant diluted 40 times) incubated 1 h at room temperature with the synthetic peptides, then injected over 2000 RU of immobilised WT ECD1-nuc (nuclease in the reference cell); RU read at 90 sec; Biacore X100, CM5, HBS-EP; the pair peptide and MAb
[2] = target: ECD1-nuc after phosphorylation by Src kinase (phosphate on Tyr-30) (human); assay: SPR; ECD1-nuc (Tyr-54 of nuclease removed) immobilised as ligand, nuclease in the reference cell; 2C3 Fab as analyte; measured before and after phosphorylation on the chip by Src kinase; Biacore X100
[3] = target: ECD1-nuc with the phosphorylation site on Tyr-54 of nuclease removed, not phosphorylated (human); assay: as above
[4] = target: T1, first extracellular domain of DARC followed by nuclease from Staphylococcus aureus (ECD1-nuc), wild type (Homo sapiens, UniProt Q16570); assay: ELISA; direct: plate coated with wild-type ECD1-nuc (0.1 μg per well), 2C3 Fab diluted in TBS, 1 h at room temperature; detected with anti-Fab antiserum conjugated with alkaline phosphatase; triplicates; conditions: both partners purified
T1 construct: Duffy Antigen Receptor for Chemokines (DARC, ACKR1), first extracellular domain (ECD1); also called WT ECD1-nuc; consensus ECD1; source: E. coli BL21, purified (Capto-S ion exchange, reversed-phase chromatography); not shown: nuclease from Staphylococcus aureus, C-terminal, kept

[5] = target: T2, Duffy Antigen Receptor for Chemokines (DARC), full-length consensus, expressed in K562 cells (human) (UniProt Q16570); assay: SPR; DARC purified from K562 cells immobilised at ca. 400 RU, reference cell only activated and deactivated; 2C3 Fab as analyte; measured before and after deglycosylation on the chip with N-glycosidase; Biacore X100
T2 sequence (chain, N-linked oligosaccharide chains (as made in K562 cells)): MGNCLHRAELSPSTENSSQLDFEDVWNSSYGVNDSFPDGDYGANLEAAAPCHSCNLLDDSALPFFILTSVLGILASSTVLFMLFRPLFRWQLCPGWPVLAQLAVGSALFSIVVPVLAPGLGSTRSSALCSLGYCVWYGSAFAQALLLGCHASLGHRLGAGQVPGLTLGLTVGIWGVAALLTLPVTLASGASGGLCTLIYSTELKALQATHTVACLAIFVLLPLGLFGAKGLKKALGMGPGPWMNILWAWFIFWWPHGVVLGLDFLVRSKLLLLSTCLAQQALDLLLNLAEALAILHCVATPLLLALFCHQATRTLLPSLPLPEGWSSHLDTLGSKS

[6] = target: T3, DARC from K562 cells after deglycosylation (Homo sapiens, UniProt Q16570, oligosaccharides removed by PNG-ase F on the chip); assay: as above; conditions: both partners purified
T3 construct: Duffy Antigen Receptor for Chemokines (DARC, Atypical Chemokine Receptor 1), full length; m15 after treatment on the chip; also called deglycosylated DARC; source: K562 cells expressing DARC, purified on an immobilised anti-DARC nanobody; deglycosylated with N-glycosidase (PNG-ase F) on the sensor chip

[7] = target: T1, first extracellular domain of DARC …; assay: SPR; 2C3 MAb or 2C3 Fab immobilised by amine coupling (about 400 RU), anti-Kx2 antibody in the reference cell; ECD1-nuc as analyte at 5 concentrations; association 100 sec, dissociation 600 sec; Biacore X100, CM5, HBS-EP; 1:1 Langmuir model; conditions: both partners purified
[8] = target: T4, synthetic peptide DFEDVWNSSYG (residues 21-31 of ECD1 of DARC) (Homo sapiens); assay: SPR; competition: 2C3 MAb (culture supernatant diluted 40 times) incubated 1 h at room temperature with the synthetic peptides, then injected over 2000 RU of immobilised WT ECD1-nuc (nuclease in the reference cell); RU read at 90 sec; Biacore X100, CM5, HBS-EP; the pair peptide and MAb; conditions: one partner purified
T4 construct: DARC (ACKR1), residues 21-31 of ECD1; also called non-sulfated peptide; source: synthetic peptide; bought: Cambridge Research Biochemicals
T4 chain: DFEDVWNSSYG

[9] = target: T5, Duffy Antigen Receptor for Chemokines (DARC), full-length consensus, expressed in K562 cells (Homo sapiens, UniProt Q16570, N-linked oligosaccharide chains (as made in K562 cells)); assay: flow cytometry on cells; about 10^6 transfected K562 cells incubated 1 hour with 2C3 MAb culture supernatant in PBS-0.2% BSA, PE-conjugated secondary antibody; read-out is the ratio of % cells positive with 2C3 MAb to % positive with the anti-Fy^a antibody; cells with mean fluorescence above 10^2 counted as positive; conditions: partners not purified
T5 construct: also called ACKR1; DARC from K562 cells; source: K562 cells, transfected, selected with geneticin: on cells (flow cytometry); purified from the lysate on an immobilised anti-DARC nanobody, eluted with peptide DFEDVW (SPR)

[10] = target: T6, full-length DARC with Tyr-30 replaced by Ala, on K562 cells (Homo sapiens, UniProt Q16570, Y30A (printed as the sequence FEDVWNSSA)); assay: as above; conditions: partners not purified
T6 construct: DARC (ACKR1), full length, mutant; source: K562 cells, transfected, on cells

[11] = target: T7, full-length DARC with Tyr-30 replaced by Glu, on K562 cells (Homo sapiens, UniProt Q16570, Y30E (printed as the sequence FEDVWNSSE)); assay: as above; conditions: partners not purified
T7 construct: DARC (ACKR1), full length, mutant; source: K562 cells, transfected, on cells

[12] = target: T8, full-length DARC without the glycosylation site at Asn-27 (Ser-29 replaced by Ala), on K562 cells (Homo sapiens, UniProt Q16570, S29A (printed as the sequence FEDVWNSAY), site N27 is not glycosylated); assay: as above; conditions: partners not purified
T8 construct: DARC (ACKR1), full length, mutant; source: K562 cells, transfected, on cells

[13] = target: T9, full-length DARC with Ser-29 and Tyr-30 replaced by Ala, on K562 cells (Homo sapiens (Human)., UniProt Q16570, S29A (printed as the sequence FEDVWNSAA) | Y30A (printed as the sequence …, site N27 is not glycosylated)); assay: as above; conditions: partners not purified
T9 construct: DARC (ACKR1), full length, mutant; source: K562 cells, transfected, on cells

[14] = target: T10, full-length DARC with Trp-26 replaced by Phe, on K562 cells (Homo sapiens (Human)., UniProt Q16570, W26F (printed as the sequence FEDVFNSSY)); assay: as above; conditions: partners not purified
T10 construct: DARC (ACKR1), full length, mutant; source: K562 cells, transfected, on cells

For DFEDVWNSS[sY]G [synthetic sulfated peptide …(SO3H)G (residues 21-31 of ECD1 of DARC)], the IC50 [1] was 252 nM.

B1: 2C3 Fab fragment (Fab, V domains shown)
VH: EVKLVESGGDLVQPGGSLKLSCAASGMTFSSYGMSWVRQTPDKRLELVASINRNGGSTYYPDSVKGRFTISRDNAKNTLYLQMSSLKSEDTAMYFCVRAGDYLSMDYWGQGTSVTVSS
VL: ELVMTQTPLSLPVSLGDQASISCRTSQSLLHSNGNTYLHWYLQKPGQSPKLLIYKVPNRFSGVPDRFSGSGSGTDFTLRITRVEAEDLGVYFCSQSTHVYTFGGGTKLEIK
notes: variable region of the heavy chain, as the VH of m1; CH1 part of the Fab; variable region of the light chain, as the VL of m1; light chain constant domain of the Fab; Cloned by PCR from total RNA of the hybridoma into pComb3H; also called 2C3-derived Fab; source: E. coli (pComb3H vector), purified
With B1 the Kd [2] was 0.459 nM, the koff [2] was 0.000777 s⁻¹ and the kon [2] was 1.69e+06 M⁻¹ s⁻¹. The Kd [3] was 14.2 nM, the koff [3] was 0.000766 s⁻¹ and the kon [3] was 53900 M⁻¹ s⁻¹. For the same binder, the “fold lower affinity than 2C3 MAb (ELISA)” value [4] was about 2 fold, the Kd [5] was 0.263 nM and the koff [5] was 0.000547 s⁻¹. It also gave a kon [5] of 2.08e+06 M⁻¹ s⁻¹, a Kd [6] of 0.0283 nM and a koff [6] of 0.000276 s⁻¹. For the same binder, the kon [6] was 9.75e+06 M⁻¹ s⁻¹ and the Kd [7] was 93 nM.

B2: murine anti-Fy6 monoclonal antibody 2C3 (clone name NaM185-2C3) (antibody, V domains shown)
VH: EVKLVESGGDLVQPGGSLKLSCAASGMTFSSYGMSWVRQTPDKRLELVASINRNGGSTYYPDSVKGRFTISRDNAKNTLYLQMSSLKSEDTAMYFCVRAGDYLSMDYWGQGTSVTVSS
VL: ELVMTQTPLSLPVSLGDQASISCRTSQSLLHSNGNTYLHWYLQKPGQSPKLLIYKVPNRFSGVPDRFSGSGSGTDFTLRITRVEAEDLGVYFCSQSTHVYTFGGGTKLEIK
notes: variable region of the heavy chain; murine heavy chain constant region; variable region of the light chain; murine light chain constant region; Whole murine antibody; The variable regions were cloned from the hybridoma for the Fab; also called 2C3 MAb; MAb 2C3; source: 2C3-producing hybridoma
In the case of B2, the Kd [7] is reported as 1.1 nM, the IC50 [8] is reported as 410 ± 40 nM and the “ratio of % cells positive with 2C3 MAb to % cells positive with anti-Fy^a MAb” value (from here on “ratio of % cells positive with 2C3 MAb”) [9] is reported as 0.97 ± 0.07. The “ratio of % cells positive with 2C3 MAb” value [10] was 0.75 ± 0.03, the “ratio of % cells positive with 2C3 MAb” value [11] was 1.16 ± 0.09 and the “ratio of % cells positive with 2C3 MAb” value [12] was 0.97 ± 0.04. The “ratio of % cells positive with 2C3 MAb” value [13] was 0.95 ± 0.03 and the “ratio of % cells positive with 2C3 MAb” value [14] was 0.19 ± 0.02.
